# T1: rGlyR3 (CelR3) (Clostridium thermocellum)
# T1 chain: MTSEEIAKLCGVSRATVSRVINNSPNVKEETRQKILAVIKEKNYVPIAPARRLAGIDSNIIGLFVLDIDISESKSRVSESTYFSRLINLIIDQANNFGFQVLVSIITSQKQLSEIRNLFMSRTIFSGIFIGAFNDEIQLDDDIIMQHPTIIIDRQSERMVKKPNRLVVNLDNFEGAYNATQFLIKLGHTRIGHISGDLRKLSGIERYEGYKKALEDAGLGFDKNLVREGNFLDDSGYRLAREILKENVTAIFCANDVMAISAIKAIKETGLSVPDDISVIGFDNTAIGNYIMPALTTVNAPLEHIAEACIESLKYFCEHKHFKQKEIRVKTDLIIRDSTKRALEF
# Molecular target: T1, rGlyR3 (CelR3)
# Assay: EMSA; dose dependent; inhibited by laminaribiose
binder,measurement,value
18 bp GlyR3 binding site (dsDNA) DNA 1: AATGAACGCGCGTACATT DNA 2: AATGTACGCGCGTTCATT,binding result,binds
